Experimental data: PMC7017226

Experiments:
[1] = target: Stromal interacting molecule 2 (STIM2) (rat (endogenous in primary cortical neurons)); assay: proximity ligation; Duolink in situ PLA on fixed 17-day-old rat cortical neurons; rabbit anti-STIM1 or anti-STIM2 with mouse anti-NR2A or anti-NR2B; cells treated 10 min with 2 mM CaCl2 (control) or 2 uM TG in 0.5 mM EGTA; PLA signals per cell counted in ImageJ
[2] = target: Stromal interacting molecule 1 (STIM1) (rat (endogenous in primary cortical neurons)) (UniProt P84903); assay: as above
Chain of Stromal interacting molecule 1 (STIM1) (rat (endogenous in primary cortical neurons)) (P84903 23-685): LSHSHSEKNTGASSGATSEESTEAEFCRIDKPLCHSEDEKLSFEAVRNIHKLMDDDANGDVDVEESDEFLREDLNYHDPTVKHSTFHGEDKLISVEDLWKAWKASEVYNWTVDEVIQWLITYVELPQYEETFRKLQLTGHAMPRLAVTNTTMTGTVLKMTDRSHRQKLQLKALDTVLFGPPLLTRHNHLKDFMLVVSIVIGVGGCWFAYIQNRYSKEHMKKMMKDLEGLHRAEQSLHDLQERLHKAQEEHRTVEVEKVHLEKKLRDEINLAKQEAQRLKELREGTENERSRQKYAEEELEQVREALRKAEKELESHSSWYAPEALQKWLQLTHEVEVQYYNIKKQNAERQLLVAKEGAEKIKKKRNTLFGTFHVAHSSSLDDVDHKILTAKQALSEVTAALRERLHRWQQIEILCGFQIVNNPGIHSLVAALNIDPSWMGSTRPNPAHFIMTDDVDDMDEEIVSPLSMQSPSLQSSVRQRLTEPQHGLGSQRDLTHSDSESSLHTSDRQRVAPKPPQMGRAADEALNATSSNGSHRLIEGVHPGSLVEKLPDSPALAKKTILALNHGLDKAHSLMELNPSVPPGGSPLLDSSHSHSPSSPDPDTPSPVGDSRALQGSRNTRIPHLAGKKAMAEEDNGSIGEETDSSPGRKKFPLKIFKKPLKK

Chain of NMDA receptor subunit NR2A (Q00959 23-1464): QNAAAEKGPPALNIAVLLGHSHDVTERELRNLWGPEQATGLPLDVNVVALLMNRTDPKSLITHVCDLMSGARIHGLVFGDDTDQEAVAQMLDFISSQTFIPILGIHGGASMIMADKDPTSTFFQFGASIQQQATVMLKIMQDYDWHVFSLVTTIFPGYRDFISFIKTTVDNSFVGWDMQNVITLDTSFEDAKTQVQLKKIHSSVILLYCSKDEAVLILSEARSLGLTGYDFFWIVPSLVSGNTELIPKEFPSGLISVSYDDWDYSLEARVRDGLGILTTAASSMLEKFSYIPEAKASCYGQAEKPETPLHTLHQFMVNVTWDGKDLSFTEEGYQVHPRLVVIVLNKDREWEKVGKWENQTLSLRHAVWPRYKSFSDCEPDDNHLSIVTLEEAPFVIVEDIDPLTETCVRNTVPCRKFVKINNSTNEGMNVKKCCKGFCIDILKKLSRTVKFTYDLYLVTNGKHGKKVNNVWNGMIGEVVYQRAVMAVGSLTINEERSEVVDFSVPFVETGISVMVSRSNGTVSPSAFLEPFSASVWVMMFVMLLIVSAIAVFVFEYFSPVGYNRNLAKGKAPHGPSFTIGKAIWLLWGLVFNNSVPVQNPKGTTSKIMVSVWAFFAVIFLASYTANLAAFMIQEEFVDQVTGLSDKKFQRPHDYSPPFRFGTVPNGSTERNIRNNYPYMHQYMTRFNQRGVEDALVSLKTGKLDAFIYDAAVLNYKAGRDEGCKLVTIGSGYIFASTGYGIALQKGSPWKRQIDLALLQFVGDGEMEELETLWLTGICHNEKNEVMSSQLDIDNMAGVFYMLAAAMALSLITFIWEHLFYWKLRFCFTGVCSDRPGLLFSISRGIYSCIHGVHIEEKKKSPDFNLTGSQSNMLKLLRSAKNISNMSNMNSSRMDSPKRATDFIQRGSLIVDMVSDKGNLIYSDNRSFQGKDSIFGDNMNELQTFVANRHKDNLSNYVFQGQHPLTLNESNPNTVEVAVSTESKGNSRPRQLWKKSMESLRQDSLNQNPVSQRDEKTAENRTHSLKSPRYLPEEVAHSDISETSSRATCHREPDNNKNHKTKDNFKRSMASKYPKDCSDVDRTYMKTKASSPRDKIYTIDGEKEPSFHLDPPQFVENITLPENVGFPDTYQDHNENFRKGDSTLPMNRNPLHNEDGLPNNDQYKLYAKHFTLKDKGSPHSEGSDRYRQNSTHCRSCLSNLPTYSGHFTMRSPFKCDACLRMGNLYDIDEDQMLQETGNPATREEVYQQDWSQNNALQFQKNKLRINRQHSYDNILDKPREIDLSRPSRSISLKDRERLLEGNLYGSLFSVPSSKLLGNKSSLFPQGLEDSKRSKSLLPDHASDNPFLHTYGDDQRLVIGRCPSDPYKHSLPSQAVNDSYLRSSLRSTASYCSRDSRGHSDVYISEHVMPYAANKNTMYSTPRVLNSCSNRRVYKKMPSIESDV
Chain of NMDA receptor subunit NR2B, Q00960 27-1482 (receptor; other documents disagree on this pair) (Q00960 27-1482): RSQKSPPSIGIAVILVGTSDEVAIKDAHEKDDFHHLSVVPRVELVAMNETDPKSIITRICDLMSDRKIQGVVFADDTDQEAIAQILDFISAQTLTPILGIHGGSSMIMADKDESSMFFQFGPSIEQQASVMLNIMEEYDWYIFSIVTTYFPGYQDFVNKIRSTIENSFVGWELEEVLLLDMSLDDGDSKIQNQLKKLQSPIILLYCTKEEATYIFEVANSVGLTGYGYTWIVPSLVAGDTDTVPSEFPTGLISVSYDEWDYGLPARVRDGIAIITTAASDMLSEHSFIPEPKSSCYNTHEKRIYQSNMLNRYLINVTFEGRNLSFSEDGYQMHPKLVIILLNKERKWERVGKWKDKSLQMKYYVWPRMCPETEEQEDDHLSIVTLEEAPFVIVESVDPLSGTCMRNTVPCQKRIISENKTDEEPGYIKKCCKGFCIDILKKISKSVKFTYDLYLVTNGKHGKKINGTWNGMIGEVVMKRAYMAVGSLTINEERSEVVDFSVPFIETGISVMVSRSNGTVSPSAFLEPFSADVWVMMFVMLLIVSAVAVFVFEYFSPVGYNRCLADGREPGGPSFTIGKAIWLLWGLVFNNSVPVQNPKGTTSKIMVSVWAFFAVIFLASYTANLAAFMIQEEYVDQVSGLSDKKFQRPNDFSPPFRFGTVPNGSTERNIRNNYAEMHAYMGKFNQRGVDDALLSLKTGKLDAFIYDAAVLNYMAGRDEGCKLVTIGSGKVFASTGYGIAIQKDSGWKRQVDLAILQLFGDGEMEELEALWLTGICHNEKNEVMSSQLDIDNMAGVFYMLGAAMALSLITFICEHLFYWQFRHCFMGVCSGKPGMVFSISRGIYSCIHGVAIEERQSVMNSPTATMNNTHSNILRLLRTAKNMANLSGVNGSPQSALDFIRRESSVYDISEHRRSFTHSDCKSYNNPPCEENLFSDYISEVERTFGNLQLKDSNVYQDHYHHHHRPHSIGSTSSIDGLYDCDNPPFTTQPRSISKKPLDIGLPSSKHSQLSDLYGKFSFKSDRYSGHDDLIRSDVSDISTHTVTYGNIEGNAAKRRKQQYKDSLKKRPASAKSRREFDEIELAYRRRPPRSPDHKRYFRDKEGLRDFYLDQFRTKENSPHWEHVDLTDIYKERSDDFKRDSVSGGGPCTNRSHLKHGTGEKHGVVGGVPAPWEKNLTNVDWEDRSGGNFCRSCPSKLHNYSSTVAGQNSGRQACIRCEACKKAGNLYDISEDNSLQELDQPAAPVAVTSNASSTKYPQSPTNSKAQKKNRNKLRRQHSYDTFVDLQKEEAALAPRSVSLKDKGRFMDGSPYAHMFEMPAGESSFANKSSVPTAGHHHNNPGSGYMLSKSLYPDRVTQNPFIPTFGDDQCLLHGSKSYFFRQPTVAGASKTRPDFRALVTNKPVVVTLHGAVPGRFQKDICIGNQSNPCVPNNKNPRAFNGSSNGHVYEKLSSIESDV

| PLA complexes per cell (complexes per cell) [1] | PLA complexes per cell (complexes per cell) [2] | Substance |
| --- | --- | --- |
| 3.78 | – | NMDA receptor subunit NR2A (from UniProt Q00959 23-1464) |
| – | 57.2 | NMDA receptor subunit NR2B, Q00960 27-1482 (receptor; other documents disagree on this pair) |
